Measurements as given in article PMC10413271.
Where “and” joins values, the source holds several entries; their conditions need not be identical. Identical values can stand only once.

What was measured:
[1] = target: NiV full-length glycoprotein G (NiV-G) expressed from Ad5-NiVG (Nipah virus, Bangladesh strain (NiV-Bd)); assay: Western blot (ProteinSimple capillary system)
[2] = target: NiV-soluble external domain glycoprotein G (NiV-Ge) expressed from Ad5-NiVGe (Nipah virus, Bangladesh strain (NiV-Bd)); assay: Western blot (ProteinSimple capillary system)

NiV full-length glycoprotein G (NiV-G) expressed from Ad5-NiVG (natural protein)
stoichiometry N [1]: 2

NiV-soluble external domain glycoprotein G (NiV-Ge) expressed from Ad5-NiVGe (domain or fragment)
stoichiometry N [2]: 2 and 4
